Our source for the Kd values is article PMC5436579 (2017).

Bounds are passed on as bounds.

This data set concerns the molecule itself.

B1: AmpR effector-binding domain (protein)
chain: LLERFEGGHYRDVLTVGAVGTFTVGWLLPRLEDFQARHPFIDLRLSTHNNRVDIAAEGLDYAIRFGGGAWHGTEALALFEAPLTVLCCPEVAAQLHSPADLLQHTLLRSYRADEWPLWFQAAGLPAHAPLTRSIVFDTSLAMLEAARQGVGVALAPAAMFARQLASESIRRPFATEVSTGSYWLTRLQSRGETSAMLAFRGWLLEMAAVEARGR
For B1, the equilibrium dissociation constant (Kd) is < 1000 nM.
